Two molecules from PMC6783867 (2019) can be followed below.

In general, koff refers to the first-order rate constant of dissociation.

Sequences and labels used below:
B1: 10th and 11th cadherin repeat domains of the Plutella xylostella cadherin (PxCR10–11), GST-tagged (domain or fragment)
chain: QAVDLKNEGCTADAGDCYSVYYRIVSDISESFKVDAEKNIISLTRELDRADGVRHIVTVAASNQPDATDNPTNVLTVTVFVREANPRPIFENEVYTAGISTMDSINRELFTVKATRTENLSIKYTIDPSSMVADTSLQSVQGSAFELDADSGVLTLKIKPTASMRGMFEFEVIATDTEQATDRAEVKVYIVSDNNRVSFLFQNQLTQVEQYRDFIAQTLSAGFKMACNIDEVIPSTDAGGSPVEGVTEVRAHFIRDNQPVTADVIEALRSDVELLTNIQRTLNTNLLVLTDFVTDISPSVTADAARVIIYLLGALSAALALALACLVLLAAYWFRTRALNRRLEA

The target in test [1] is Cry2Ab–AVM bioconjugate (Cry2Ab30 conjugated with 4''-O-succinyl avermectin) (Bacillus thuringiensis, 4''-O-succinyl avermectin joined by an amide bond to amino groups of Cry2Ab30; sites and number not determined (Lys 232 named as potential site from a homology model)). Nature of the test: BLI. In general terms: Biolayer interferometry detects binding as a change in optical thickness at a sensor tip.

Test [2] concerns the target B1. Nature of the test: BLI.

B1 gave a koff in test [1] of 0.000569 s⁻¹.

B2: Bacillus thuringiensis insecticidal protein (Bt toxin) Cry2Ab30 (natural protein)
chain: MNSVLNSGRTTICDAYNVAAHDPFSFQHKSLDTVQKEWTEWKKNNHSLYLDPIVGTVASFLLKKVGSLVGKRILSELRNLIFPSGSTNLMQDILRETEKFLNQRLNTDTLARVNAELTGLQANVEEFNRQVDNFLNPNRNAVPLSITSSVNTMQQLFLNRLPQFQMQGYQLLLLPLFAQAANLHLSFIRDVILNADEWGISAATLRTYRDYLKNYTRDYSNYCINTYQSAFKGLNTRLHDMLEFRTYMFLNVFEYVSIWSLFKYQSLLVSSGANLYASGSGPQQTQSFTSQDWPFLYSLFQVNSNYVLNGFSGARLSNTFPNIVGLPGSTTTHALLAARVNYSGGISSGDIGASPFNQNFNCSTFLPPLLTPFVRSWLDSGSDREGVATVTNWQTESFETTLGLRSGAFTARGNSNYFPDYFIRNISGVPLVVRNEDLRRPLHYNEIRNIASPSGTPGGARAYMVSVHNRKNNIHAVHENGSMIHLAPNDYTGFTISPIHATQVNNQTRTFISEKFGNQGDSLRFEQNNTTARYTLRGNGNSYNLYLRVSSIGNSTIRVTINGRVYTATNVNTTTNNDGVNDNGARFSDINIGNVVASSNSDVPLDINVTLNSGTQFDLMNIMLVPTNISPLY
As to B2, the koff in test [2] was 0.000567 s⁻¹.
